Consider 1 molecule from article PMC10896730.

This assay deals with oxidative phosphorylation (OXPHOS) complex III (CIII), all subunits (mouse (endogenous in skeletal muscle)) (UniProt Q9CZ13). The assay is described as follows: affinity purification with mass spectrometry; IP of UQCRC2 from mouse hindlimb Skm extracts, LC–MS; stoichiometry from the slopes of protein abundance against effective number of tryptic peptides; approximate.
UniProt Q9CZ13, sequence (Q9CZ13 whole entry, looked up, tested part not stated, one chain of several): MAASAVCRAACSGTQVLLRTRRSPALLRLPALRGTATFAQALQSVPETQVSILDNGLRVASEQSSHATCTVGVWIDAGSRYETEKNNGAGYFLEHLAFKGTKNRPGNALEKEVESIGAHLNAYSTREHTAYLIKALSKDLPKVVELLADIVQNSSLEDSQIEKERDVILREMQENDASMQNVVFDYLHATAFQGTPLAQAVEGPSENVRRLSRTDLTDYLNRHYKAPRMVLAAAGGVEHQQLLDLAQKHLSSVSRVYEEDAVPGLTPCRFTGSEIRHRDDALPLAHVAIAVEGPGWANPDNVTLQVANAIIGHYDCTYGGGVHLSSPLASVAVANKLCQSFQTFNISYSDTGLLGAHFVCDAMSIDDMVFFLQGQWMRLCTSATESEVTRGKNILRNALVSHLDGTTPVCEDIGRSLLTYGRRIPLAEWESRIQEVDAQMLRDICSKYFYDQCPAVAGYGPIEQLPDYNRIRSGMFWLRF

B1: electron-transfer flavoprotein dehydrogenase (ETFDH) (natural protein)
chain: SSTSAVPQITTHYTVHPREKDKRWEGVNMERFAEEADVVIVGAGPAGLSAAIRLKQLAAEQGKDIRVCLVEKAAQIGAHTLSGACLDPAAFKELFPDWKEKGAPLNTPVTEDRFAILTEKHRIPVPILPGLPMNNHGNYIVRLGHLVSWMGEQAEALGVEVYPGYAAAEVLYHEDGSVKGIATNDVGIQKDGAPKTTFERGLELHAKVTVFAEGCHGHLAKQLYKKFDLRASCDAQTYGIGLKELWIIDEKKWKPGRVDHTVGWPLDRHTYGGSFLYHLNEGEPLVAVGFVVGLDYQNPYLSPFREFQRWKHHPSIQPTLEGGKRIAYGARALNEGGLQSIPKLTFPGGLLIGCSPGFMNVPKIKGTHTAMKSGSLAAESIFKQLTSENLQSKTTGLHVTEYEDNLKQSWVWKELHAVRNIRPSCHGILGVYGGMIYTGIFYWILRGMEPWTLKHKGSDSDQLKPAKDCTPIEYPKPDGQISFDLLSSVALSGTNHEHDQPAHLTLKDDSIPVNRNLSIYDGPEQRFCPAGVYEFVPLEQGDGFRLQINAQNCVHCKTCDIKDPSQNINWVVPEGGGGPAYNGM
In turn, B1 had a stoichiometry N (ETF complex per CIII complex) of 0.5.
